Results published in PMC12451656, “HMGB1 B‑Box Domain Associates Promote Protein–Polyelectrolyte Interactions” (The Journal of Physical Chemistry. B, 2025).

Target: the molecule itself
Assay: dynamic light scattering; as-prepared, unfiltered B-box, 30 μM, 25 mM Tris-HCl pH 6.9, 150 mM NaCl, 25 °C, backscattering mode; the retentate of the 30 kDa filter was also measured (Figure S6)

B1: HMGB1 B-box domain (domain or fragment, human)
chain: MARIDPNAPKRPPSAFFLFCSEYRPKIKGEHPGLSIGDVAKKLGEMWNNTAADDKQPYEKKAAKLKEKYEKDIAAYRAKGKPDAAKKGVV
notes: initiator methionine followed by the triplet alanine-arginine-isoleucine (ARI), inserted through the forward primer for better expression; HMGB1 (high mobility group box 1), human, B-box domain, cloned from the human HMGB1 cDNA; Numbers count on: the construct (Cys19 = Cys106 of full-length HMGB1; Trp46); By the reverse primer, the XhoI site adds LE between V176 and the SGS-His8 tag; The DLS …
stoichiometry N: ~8
